± gives the uncertainty stated by the source.
B1: Cytoplasmic polyadenylation element-binding protein 2, residues 513 to 575; numbered along this chain, Q7Z5Q1 (parent)
chain: KRVEVKPYVLDDQMCDECQGARCGGKFAPFFCANVTCLQYYCEFCWANIHSRAGREFHKPLVK
B2: POU domain, class 3, transcription factor 2, residues 356 to 411; numbered along this chain, P20265 (parent)
chain: KKRTSIEVSVKGALESHFLKCPKPSAQEITSLADSLQLEKEVVRVWFCNRRQKEKR

Variants of: B1
Assay: abundance fitness (aPCA) (normalised: wild type 0, dead -1); higher = more abundant; growth selection in yeast, the domain comes from the species named
Settings: Homo sapiens

In order of rising abundance fitness:
1. K1W  -0.985 ± 0.17
2. P7V  -0.735 ± 0.083
3. N34I  -0.731 ± 0.11
4. K63D  -0.641 ± 0.21
5. Q39D  -0.631 ± 0.087
6. W46P  -0.624 ± 0.09
7. F30P  -0.621 ± 0.092
8. K1H  -0.599 ± 0.23
9. W46R  -0.571 ± 0.07
10. E43I  -0.539 ± 0.087
11. A28F  -0.498 ± 0.11
12. K59W  -0.46 ± 0.047
13. A28M  -0.445 ± 0.094
14. W46I  -0.444 ± 0.074
15. C23W  -0.424 ± 0.061
16. P7Y  -0.405 ± 0.098
17. Y40L  -0.397 ± 0.049
18. Q39Y  -0.369 ± 0.1
19. K6F  -0.337 ± 0.066
20. W46M  -0.336 ± 0.092
21. W46N  -0.33 ± 0.04
22. M14H  -0.33 ± 0.16
23. F30C  -0.322 ± 0.061
24. F30D  -0.318 ± 0.087
25. Q19W  -0.295 ± 0.07
26. A28V  -0.287 ± 0.046
27. I49G  -0.284 ± 0.072
28. R22I  -0.284 ± 0.07
29. R22T  -0.283 ± 0.055
30. F30A  -0.261 ± 0.066
31. E17W  -0.25 ± 0.051
32. E43C  -0.25 ± 0.051
33. K59P  -0.247 ± 0.06
34. V5W  -0.247 ± 0.052
35. E4M  -0.242 ± 0.054
36. E43V  -0.235 ± 0.056
37. E4G  -0.234 ± 0.059
38. Y40M  -0.231 ± 0.055
39. C23P  -0.229 ± 0.058
40. P7A  -0.227 ± 0.056
41. K6H  -0.225 ± 0.06
42. E4V  -0.223 ± 0.045
43. E4F  -0.208 ± 0.061
44. N34R  -0.207 ± 0.046
45. N34Q  -0.207 ± 0.078
46. K59C  -0.199 ± 0.05
47. F30S  -0.195 ± 0.049
48. E17M  -0.188 ± 0.052
49. Y40K  -0.186 ± 0.063
50. E43G  -0.179 ± 0.047
51. Y40S  -0.178 ± 0.051
52. A33H  -0.177 ± 0.1
53. R55T  -0.165 ± 0.055
54. E43K  -0.161 ± 0.064
55. F30I  -0.161 ± 0.079
56. W46Y  -0.154 ± 0.052
57. Y40A  -0.149 ± 0.056
58. R55E  -0.142 ± 0.071
59. N48P  -0.141 ± 0.054
60. K59D  -0.132 ± 0.069
61. E4D  -0.132 ± 0.063
62. K6R  -0.128 ± 0.034
63. R22L  -0.128 ± 0.044
64. I49K  -0.127 ± 0.07
65. V5I  -0.113 ± 0.057
66. E4T  -0.111 ± 0.047
67. F44D  -0.109 ± 0.1
68. E43R  -0.107 ± 0.036
69. N34Y  -0.103 ± 0.074
70. E4Q  -0.099 ± 0.053
71. A53Y  -0.098 ± 0.064
72. C23T  -0.095 ± 0.053
73. N34S  -0.095 ± 0.04
74. A28K  -0.094 ± 0.06
75. A53L  -0.092 ± 0.033
76. Y40H  -0.092 ± 0.066
77. F30R  -0.09 ± 0.04
78. V5A  -0.088 ± 0.052
79. Y40F  -0.087 ± 0.089
80. M14V  -0.085 ± 0.051
81. M14I  -0.082 ± 0.12
82. A53I  -0.079 ± 0.076
83. E43H  -0.079 ± 0.084
84. M14F  -0.067 ± 0.072
85. L38D  -0.054 ± 0.052
86. E17S  -0.051 ± 0.042
87. E43N  -0.05 ± 0.071
88. A53F  -0.045 ± 0.056
89. K59T  -0.041 ± 0.059
90. K63S  -0.034 ± 0.13
91. N48C  -0.033 ± 0.083
92. N48Q  -0.028 ± 0.052
93. R55N  -0.019 ± 0.079
94. K6G  -0.017 ± 0.033
95. Q19R  -0.015 ± 0.049
96. F44S  -0.012 ± 0.038
97. V5M  -0.011 ± 0.073
98. E17C  -0.006 ± 0.08
99. N48A  -0.001 ± 0.046
100. F44T  0.003 ± 0.048
101. V5R  0.005 ± 0.041
102. L38S  0.009 ± 0.052
103. F44G  0.015 ± 0.039
104. F30Q  0.016 ± 0.063
105. I49A  0.017 ± 0.066
106. E17H  0.018 ± 0.086
107. A53D  0.02 ± 0.088
108. K59R  0.024 ± 0.038
109. N48R  0.029 ± 0.045
110. R55M  0.031 ± 0.049
111. R55F  0.035 ± 0.051
112. L10M  0.037 ± 0.056
113. L38A  0.044 ± 0.043
114. L10T  0.045 ± 0.038
115. L10R  0.046 ± 0.04
116. F44A  0.05 ± 0.043
117. A53H  0.053 ± 0.064
118. L10W  0.056 ± 0.057
119. V5Q  0.077 ± 0.068
120. L38E  0.077 ± 0.053
121. Q39M  0.078 ± 0.074
122. A53E  0.082 ± 0.055
123. M14S  0.098 ± 0.04
124. K63G  0.1 ± 0.1
125. V5S  0.105 ± 0.038
126. A33D  0.12 ± 0.063
127. F44Q  0.124 ± 0.061
128. K63A  0.125 ± 0.16
129. Q39R  0.129 ± 0.045
130. N48K  0.164 ± 0.081
131. V5P  0.167 ± 0.053
132. L38Y  0.174 ± 0.077

Variants of: B2
Assay: as above
Settings: Homo sapiens

In order of falling abundance fitness:
1. R3C  0.246 ± 0.12
2. R3G  0.092 ± 0.08
3. K1D  0.082 ± 0.15
4. K2D  0.028 ± 0.18
5. K1N  -0.012 ± 0.2
6. R3F  -0.021 ± 0.13
7. K2Y  -0.06 ± 0.28
8. K2Q  -0.068 ± 0.17
9. K2E  -0.07 ± 0.18
10. K1V  -0.072 ± 0.28
11. K2M  -0.072 ± 0.13
12. K2G  -0.087 ± 0.1
13. K2V  -0.119 ± 0.12
14. K2A  -0.154 ± 0.15
15. K2R  -0.166 ± 0.099
16. R3A  -0.168 ± 0.082
17. K2S  -0.18 ± 0.12
18. K2F  -0.199 ± 0.2
19. K1T  -0.206 ± 0.14
20. K2I  -0.207 ± 0.21
21. K2T  -0.21 ± 0.14
22. K1G  -0.214 ± 0.13
23. K2L  -0.222 ± 0.12
24. K1A  -0.237 ± 0.21
25. K1M  -0.244 ± 0.24
26. K2W  -0.246 ± 0.13
27. K1S  -0.273 ± 0.15
28. K1R  -0.302 ± 0.17
29. K2H  -0.335 ± 0.47
30. K2N  -0.339 ± 0.2
31. K1Y  -0.382 ± 0.44
32. K2C  -0.395 ± 0.2
33. K1I  -0.397 ± 0.22
34. K1L  -0.498 ± 0.46
35. K2P  -0.525 ± 0.24

Source: the Human Domainome abundance scans (Beltran et al. 2025)
